{
  "source": "patent US20120321607A1",
  "key": {"[1]": {"system": "T1, Factor VII (wild-type, single-chain zymogen)", "T1 sequence": "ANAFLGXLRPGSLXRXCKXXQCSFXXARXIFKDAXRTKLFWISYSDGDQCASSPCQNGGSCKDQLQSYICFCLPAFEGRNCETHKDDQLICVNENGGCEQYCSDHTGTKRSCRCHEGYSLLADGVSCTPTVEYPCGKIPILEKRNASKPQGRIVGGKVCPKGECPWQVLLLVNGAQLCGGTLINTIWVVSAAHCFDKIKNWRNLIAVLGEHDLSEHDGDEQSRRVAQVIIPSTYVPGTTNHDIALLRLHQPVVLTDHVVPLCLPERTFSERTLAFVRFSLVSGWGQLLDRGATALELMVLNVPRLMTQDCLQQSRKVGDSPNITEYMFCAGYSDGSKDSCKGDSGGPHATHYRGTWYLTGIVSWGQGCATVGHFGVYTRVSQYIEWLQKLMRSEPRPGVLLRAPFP"}, "[2]": {"biological_target": "FVII_XHC: FVII with FX activation peptide inserted in the end of FVII heavy chain", "assay": "cell-based or functional assay"}},
  "data": [
    {"substance": "Factor IXa", "values": [
      {"measurement": "activation of FVII (cleavage to two chains) on reducing SDS-PAGE; 250 nM FIXa for 20 h", "setting": "[1]", "value": "completely activated under all described conditions"}
    ]},
    {"substance": "Factor XIa", "values": [
      {"measurement": "activation of FVII (cleavage to two chains) on reducing SDS-PAGE; 75 nM FXIa for 2.5 h", "setting": "[1]", "value": "completely activated under all described conditions"}
    ]},
    {"substance": "Factor Xa", "values": [
      {"measurement": "activation of FVII (cleavage to two chains) on reducing SDS-PAGE; 100 nM FXa for 2 h", "setting": "[1]", "value": "completely activated under all described conditions"}
    ]},
    {"substance": "Factor IXa (from UniProt P00740 47-461) (enzyme)", "values": [
      {"measurement": "time to complete activation, reducing SDS-PAGE, 80 nM FIXa", "setting": "[2]", "value": 4, "unit": "h"}
    ]}
  ]
}
